This note sets out measurements from patent publication US20070060518A1 (MANNKIND, published 2007).

B1: PSMA288-297 analog with Ala at P1 (peptide)
peptide: ALPSIPVHPI
B2: PSMA288-297 analog with Ser at P1 (peptide)
peptide: SLPSIPVHPI
B3: PSMA288-297 analog with Thr at PΩ-1 (peptide)
peptide: GLPSIPVHTI
B4: PSMA288-297 analog with Ser at PΩ-1 (peptide)
peptide: GLPSIPVHSI
B5: PSMA288-297 analog with Ala at PΩ-1 (peptide)
peptide: GLPSIPVHAI
B6: PSMA288-297 analog with Leu at PΩ-1 (peptide)
peptide: GLPSIPVHLI
B7: PSMA288-297 analog with Abu at P1 (peptide)
peptide: XLPSIPVHPI
modifications: aminobutyric acid (Abu) at P1
notes: also called G288Abu
B8: PSMA288-297 analog with Sar at P1 (peptide)
peptide: XLPSIPVHPI
modifications: sarkosine (Sar, N-methylglycine) at P1
B9: PSMA288-297 analog with Gln at P2 (peptide)
peptide: GQPSIPVHPI
B10: PSMA288-297 analog with Leu at PΩ (peptide)
peptide: GLPSIPVHPL
B11: PSMA288-297 analog with Ile at P2 (peptide)
peptide: GIPSIPVHPI
B12: PSMA288-297 analog with Val at P2 (peptide)
peptide: GVPSIPVHPI
B13: PSMA288-297 analog with Abu at P2 (peptide)
peptide: G[Abu]PSIPVHPI
B14: PSMA288-297 analog with Nva at P2 (peptide)
peptide: G[Nva]PSIPVHPI
B15: PSMA288-297 analog with Nle at PΩ (peptide)
peptide: GLPSIPVHP[Nle]
B16: PSMA288-297 analog with Ala at P1 and Val at PΩ (peptide)
peptide: ALPSIPVHPV
B17: PSMA288-297 analog with Nva at P2 and Val at PΩ (peptide)
peptide: G[Nva]PSIPVHPV
B18: PSMA288-297 analog with Nle at P2 and Val at PΩ (peptide)
peptide: GXPSIPVHPV
modifications: norleucine (Nle) at P2
B19: PSMA288-297 analog with Abu at P1 and Nva at PΩ (peptide)
peptide: XLPSIPVHPX
modifications: aminobutyric acid (Abu) at P1; norvaline (Nva) at PΩ (P10)
B20: PSMA288-297 analog with Abu at P1 and Val at PΩ (peptide)
peptide: [Abu]LPSIPVHPV
B21: PSMA288-297 analog with Ala at P1 and Nva at PΩ (peptide)
peptide: ALPSIPVHP[Nva]
B22: PSMA288-297 analog with Val at P2 and Nva at PΩ (peptide)
peptide: GVPSIPVHP[Nva]
B23: PSMA288-297 analog with Ala at P1, Trp at P3 and Val at PΩ (peptide)
peptide: ALWSIPVHPV
B24: PSMA288-297 analog with Ala at P1, Val at P2 and Val at PΩ (peptide)
peptide: AVPSIPVHPV
B25: PSMA288-297 analog with Ala at P1, Nva at P2 and Val at PΩ (peptide)
peptide: A[Nva]PSIPVHPV
B26: PSMA288-297 analog with Ala at P1, Trp at P3 and Nva at PΩ (peptide)
peptide: ALWSIPVHP[Nva]
B27: SSX2 41-49 (K41(Phe-4N02)) (peptide)
peptide: [Phe(4-NO2)]ASEKIFYV
notes: also called para-nitrophenylalanine analog
B28: SSX2 41-49 (K41(b-(3-benzothienyl)Ala)) (peptide)
peptide: XASEKIFYV
modifications: β-(3-benzothienyl)-alanine at position 41 (P1)
B29: SSX2 41-49 (K41F, A42V) (peptide)
peptide: FVSEKIFYV
B30: SSX2 41-49 (K41W, A42L) (peptide)
peptide: WLSEKIFYV
B31: SSX2 41-49 (K41F, A42I) (peptide)
peptide: FISEKIFYV
B32: SSX2 41-49 (K41Y, A42M) (peptide)
peptide: YMSEKIFYV
B33: SSX2 41-49 (K41W, A42V) (peptide)
peptide: WVSEKIFYV
B34: SSX2 41-49 (K41W, A42M) (peptide)
peptide: WMSEKIFYV
B35: SSX2 41-49 (K41Y, A42L) (peptide)
peptide: YLSEKIFYV
B36: SSX2 41-49 (K41F, A42V, Y48Phg) (peptide)
peptide: FVSEKIF[Phg]V
notes: also called FVSEKIF(Phg)V
B37: SSX2 41-49 (K41F, A42V, I46L) (peptide)
peptide: FVSEKLFYV
B38: SSX2 41-49 (K41F, A42V, E44D) (peptide)
peptide: FVSDKIFYV
B39: SSX2 41-49 (K41F, A42V, Y48T) (peptide)
peptide: FVSEKIFTV
B40: SSX2 41-49 (K41F, A42V, Y48F) (peptide)
peptide: FVSEKIFFV
B41: SSX2 41-49 (K41F, A42V, E44Q) (peptide)
peptide: FVSQKIFYV
B42: SSX2 41-49 (K41F, A42V, I46L, Y48S, V49A) (peptide)
peptide: FVSEKLFSA
B43: SSX2 41-49 (K41F, A42V, Y48S) (peptide)
peptide: FVSEKIFSV
B44: SSX2 41-49 (K41F, A42V, I46L, Y48T) (peptide)
peptide: FVSEKLFTV
B45: SSX2 41-49 (K41F, A42V, E44Nva) (peptide)
peptide: FVS[Nva]KIFYV
notes: also called FVS(Nva)KIFYV
B46: SSX2 41-49 (K41F, A42V, Y48(Phe-4F)) (peptide)
peptide: FVSEKIFXV
modifications: 4-fluorophenylalanine (Phe(4-F)) at position 48 (P8)
notes: also called FVSEKIF(Phe-4F)V
B47: SSX2 41-49 (K41F, A42V, I46Nle) (peptide)
peptide: FVSEK[Nle]FYV
notes: also called FVSEK(Nle)FYV
B48: SSX2 41-49 (K41F, A42V, E44Nle) (peptide)
peptide: FVS[Nle]KIFYV
notes: also called FVS(Nle)KIFYV
B49: SSX2 41-49 (K41F, A42V, I46Nva) (peptide)
peptide: FVSEK[Nva]FYV
notes: also called FVSEK(Nva)FYV
B50: SSX2 41-49 (K41Y, A42V) (peptide)
peptide: YVSEKIFYV
B51: SSX2 41-49 (K41F, A42V, I46L, Y48T, V49A) (peptide)
peptide: FVSEKLFTA
B52: SSX2 41-49 (K41F, A42V, I46V) (peptide)
peptide: FVSEKVFYV

Square brackets hold non-standard residues; d marks the D form. Ends that are not written are not given here. Phe(4-NO2) = N[C@@H](Cc1ccc([N+](=O)[O-])cc1)C(=O)O; Phg = N[C@H](C(=O)O)c1ccccc1; Nle = CCCC[C@H](N)C(=O)O; Nva = CCC[C@H](N)C(=O)O; Abu = CC[C@H](N)C(=O)O

The target in the first experiment is T1, HLA-A*0201 class I monomer on avidin-coated plates (iTopia Epitope Discovery System) (human).
T1 construct: Bought kit (Beckman Coulter); also called A0201 restricted MHC Class 1 molecules; MHC monomer
Nature of the experiment: iTopia assays (FIG. 19).
From the text: (§1) Avidin-coated microtiter plates containing class I monomer loaded with a so-called placeholder peptide were used to evaluate peptide binding, affinity and off-rate. […] Assay buffers, anti-MHC-FITC mAb and beta2-microglobulin and control peptides were also supplied with the kits. Binding Assay:
This assay measures the ability of individual peptides to bind HLA molecules under standardized optimal binding conditions. Monomer-coated plates were first stripped, releasing the placeholder peptide and leaving only the MHC heavy chain bound to the plate. Test peptides were then introduced under optimal folding conditions, along with the anti-MHC-FITC mAb. […] The anti-MHC-FITC mAb binds preferentially to a refolded MHC complex. Therefore, the fluorescence intensity resulting from each peptide was related to the peptide's ability to form complex with MHC molecule. Each peptide's binding was evaluated relative to the positive control peptide provided in the kit, and the results were expressed “% binding”.
With B1, the binding result is listed as “binds”.
As for B2, the binding result is reported as “binds”.
B3: the binding result is “binds”.
Take B4: the binding result was “binds”.
Consider B5, for which the binding result is “binds”.
Same read-out and setting: under B6 stands “binds”; under B7, “binds”; under B8, “binds”.

A further experiment deals with T1, HLA-A*0201 class I monomer on …. Briefly: iTopia affinity assay (FIG. 19).
From the text: as §1
Take B9: the binding result is “binds”.
Turning to B10, the binding result is on record as “binds”.
Regarding B11, the binding result was “binds”.
Turning to B12, the binding result was “binds”.
On to B13, for which the binding result is given as “binds”.
As to B14, the binding result is “binds”.
Take B15: the binding result is recorded as “binds”.

The target is the same in a further experiment. Briefly: iTopia off-rate assay (FIG. 20).
Method: as §1
(§2) The plates were then incubated on the allele-specific monomer plates at 37° C. The plates were measured at multiple time points (0, 0.5, 1, 1.5, 2, 4, 6 and 8 hrs) for relative fluorescence intensity. The time required for 50% of the peptide to dissociate from the MHC monomer is defined as the T1/2 value (hrs).
For B16, the binding result is reported as “binds”.
Consider B17, for which the binding result was “binds”.
Take B18: the binding result is listed as “binds”.
On the same count and under the same terms, under B19 stands “binds”.
As for B20, the binding result is “binds”.
As to B21, the binding result is given as “binds”.
Consider B22, for which the binding result is on record as “binds”.

The next experiment shares this target. Nature of the experiment: iTopia off-rate assay (FIG. 21).
Method: as §1, §2
For B23, the binding result is “binds”.
On the same count and under the same terms, under B24 stands “binds”; under B25, “binds”.
On to B26, for which the binding result is listed as “binds”.

A further experiment addresses T2, HLA-A*0201 on T2 cells (human).
T2 construct: whole, on cells; also called HLA-A2
Briefly: T2 cell binding assay, flow cytometry. On the technique in general: Flow cytometry measures light scatter and fluorescence of single cells or particles in a stream.
Usually EC50 stands for the concentration giving half of the maximal effect. Regarding B27, the response was half-maximal at 12.8 µM (EC50) and the “Relative affinity (1/RA)” value was 1.1.
With B28, a half-maximal response (EC50) required 24.1 µM and the “Relative affinity (1/RA)” value stood at 0.6.

A further experiment has as its target T2, HLA-A*0201 on T2 cells. Nature of the experiment: T2 cell binding assay, flow cytometry. The source holds these as a separate data set.
Take B29: the EC50 worked out at 4.67 µM and the “Relative affinity (1/RA)” value is 3.1.
The like results for B30 were, in that order, 4.47 µM and 3.3.
As for B31, the EC50 amounted to 5.37 µM and the “Relative affinity (1/RA)” value was 2.7.
Regarding B32, the EC50 was 25 µM and the “Relative affinity (1/RA)” value was found to be 0.6.
As for B33, a half-maximal effect (EC50) was put at 4.82 µM and the “Relative affinity (1/RA)” value is 3.
B34: the EC50 was found to be 5.13 µM and the “Relative affinity (1/RA)” value stood at 2.9.
B35: the response was half-maximal at 11.8 µM (EC50) and the “Relative affinity (1/RA)” value was determined as 1.2.

A further experiment addresses T2, HLA-A*0201 on T2 cells. Briefly: T2 cell binding assay, flow cytometry. The source holds these as a separate data set.
For B36, the EC50 came out at 5.85 µM and the “Relative affinity (1/RA)” value was 2.5.
B37: it took 7.8 µM to reach a half-maximal effect (EC50) and the “Relative affinity (1/RA)” value was determined as 1.9.
As to B38, the midpoint of the response, the EC50, lay at 13.2 µM and the “Relative affinity (1/RA)” value amounted to 1.1.
With B39, the EC50 is 3.9 µM and the “Relative affinity (1/RA)” value is 3.8.
Take B40: the midpoint of the response, the EC50, lay at 8.8 µM and the “Relative affinity (1/RA)” value came to 1.7.
As to B41, the EC50 came to 40.8 µM and the “Relative affinity (1/RA)” value came to 0.4.
For the molecule B42, the response was half-maximal at 6.2 µM (EC50) and the “Relative affinity (1/RA)” value came out at 2.4.
For B43, the midpoint of the response, the EC50, lay at 3.8 µM and the “Relative affinity (1/RA)” value worked out at 3.9.
Regarding B44, the midpoint of the response, the EC50, lay at 5.67 µM and the “Relative affinity (1/RA)” value was 2.6.
The like results for B45 were, in that order, 3.8 µM and 3.9.
Consider B46, for which it took 10.6 µM to reach a half-maximal effect (EC50) and the “Relative affinity (1/RA)” value came out at 1.4.
B47 gave an EC50 of 12.8 µM.
In the case of B48, the concentration giving a half-maximal response (EC50) came to 13 µM and the “Relative affinity (1/RA)” value came to 1.1.
On to B49, for which the EC50 amounted to 6.21 µM and the “Relative affinity (1/RA)” value came out at 2.4.

The target in the next experiment is T2, HLA-A*0201 on T2 cells. Briefly: T2 cell stability assay, flow cytometry.
Turning to B29, the “Stability (T1/2)” value came to 24 h.
On to B30, for which the “Stability (T1/2)” value is over 24 h.
With B31, the “Stability (T1/2)” value was over 24 h.
For B32, the “Stability (T1/2)” value is over 24 h.
Still for that read-out and setting: under B50 stands over 24 h.
As to B33, the “Stability (T1/2)” value was over 24 h.
As to B34, the “Stability (T1/2)” value is over 24 h.
On to B35, for which the “Stability (T1/2)” value is over 24 h.

The target of another experiment is T2, HLA-A*0201 on T2 cells. Briefly: T2 cell stability assay, flow cytometry. This is another data set of the same source.
Turning to B36, the “Stability (T1/2)” value was over 24 h.
For the molecule B37, the “Stability (T1/2)” value was 24 h.
Regarding B39, the “Stability (T1/2)” value is 24 h.
On the same count and under the same terms, the result for B40 reads 20 h; that for B51, 12 h.
Still for that read-out and setting: under B52 stands 24 h.
With B43, the “Stability (T1/2)” value was determined as 20 h.
The same measure, in the same setting: the result for B44 reads 24 h.
For the molecule B45, the “Stability (T1/2)” value was over 24 h.
Consider B46, for which the “Stability (T1/2)” value was 24 h.
As to B49, the “Stability (T1/2)” value is over 24 h.
